From patent US20180291083A1 (IMMATICS BIOTECHNOLOGIES, published 2018)

Assays:
HLA-B*07:02 = biological target: T1, HLA-B*07:02 (human); assay: UV ligand exchange ELISA; exchange yield grade
T1 construct: Peptide-receptive MHC class I monomer made by UV cleavage of a UV-sensitive ligand
Text: (§1) Candidate peptides for T cell based therapies according to the present invention were further tested for their MHC binding capacity (affinity). The individual peptide-MHC complexes were produced by UV-ligand exchange, where a UV-sensitive peptide is cleaved upon UV-irradiation, and exchanged with the peptide of interest as analyzed. Only peptide candidates that can effectively bind and stabilize the peptide-receptive MHC molecules prevent dissociation of the MHC complexes. To determine the yield of the exchange reaction, an ELISA was performed based on the detection of the light chain (β2m) of stabilized MHC complexes. The assay was performed as generally described in Rodenko et al. (Rodenko et al., 2006).
(§2) 96 well MAXISorp plates (NUNC) were coated over night with 2 ug/ml streptavidin in PBS at room temperature, washed 4× and blocked for 1 h at 37° C. in 2% BSA containing blocking buffer. Refolded HLA-A*02:01/MLA-001 monomers served as standards, covering the range of 15-500 ng/ml. Peptide-MHC monomers of the UV-exchange reaction were diluted 100-fold in blocking buffer. Samples were incubated for 1 h at 37° C., washed four times, incubated with 2 ug/ml HRP conjugated anti-β2m for 1 h at 37° C., washed again and detected with TMB solution that is stopped with […]. Absorption was measured at 450 nm. Candidate peptides that show a high exchange yield (preferably higher than 50%, most preferred higher than 75%) are generally preferred for a generation and production of antibodies or fragments thereof, and/or T cell receptors or fragments thereof, as they show sufficient avidity to the MHC molecules and prevent dissociation of the MHC complexes.

HLA-B*44:02 = biological target: T2, HLA-B*44:02 (human); assay: UV ligand exchange ELISA; exchange yield grade
T2 construct: Peptide-receptive MHC class I monomer made by UV cleavage of a UV-sensitive ligand
Text: as §1, §2

peptide exchange yield (HLA-B*07:02)	peptide exchange yield (HLA-B*44:02)	Binder
> 75%	–	SPRAINNLVL
–	20 to 50%	GESQDSTTAL
50 to 75%	–	SPKLQIAAM
50 to 75%	–	RPRGLALVL
20 to 50%	–	FPETVNNLL
–	50 to 75%	QEVDASIFKAW
20 to 50%	–	IPVSHPVL
20 to 50%	–	IPASHPVL
20 to 50%	–	IPANTEKASF
–	10 to 20%	NEQKIVRF
20 to 50%	–	KPKAAKPKKAAA
–	20 to 50%	RMPPFTQAF
20 to 50%	–	KPKAAKPKAA
20 to 50%	–	KPKAAKPKTA
50 to 75%	–	KPKKAPKSPA
50 to 75%	–	NPLTKLLAI
–	50 to 75%	QENMQIQSF
–	50 to 75%	KEFELRSSW
20 to 50%	–	LPLSMEAKI
–	50 to 75%	KELEDLNKW
50 to 75%	–	APFGFLGMQSL
–	20 to 50%	NEDKGTKAW

peptide exchange yield (HLA-B*07:02)	peptide exchange yield (HLA-B*44:02)	Binder
–	50 to 75%	QENQAETHAW
–	20 to 50%	GEIKEPLEI
–	50 to 75%	AEIGEGAYGKVF
–	20 to 50%	EEPAFNVSY
50 to 75%	–	RPNGNSLFTSA
–	50 to 75%	EELFRDGVNW
> 75%	–	LPARFYQAL
20 to 50%	–	KPLFKVSTF
–	50 to 75%	EEEGNLLRSW
–	50 to 75%	GEAVTDHPDRLW
50 to 75%	–	NPRYPNYMF
50 to 75%	–	SPVPSHWMVA
–	20 to 50%	EENTLVQNY
–	50 to 75%	KEKFPINGW
20 to 50%	–	LPFGKIPIL
20 to 50%	–	MPDPHLYHQM
–	> 75%	TENPLTKLL
–	20 to 50%	AENAVSNLSF
50 to 75%	–	KARKSAGAA
–	20 to 50%	AEIKQTEEKY
–	20 to 50%	AESEDLAVHL
–	20 to 50%	VDASIFKAW

peptide exchange yield (HLA-B*07:02)	peptide exchange yield (HLA-B*44:02)	Binder
> 75%	–	APINKAGSFL
–	50 to 75%	REAGFQVKAY
20 to 50%	–	YLNRHLHTW
–	20 to 50%	AEIEIVKEEF
–	50 to 75%	REYEHYWTEL
50 to 75%	–	IPVSRPIL
50 to 75%	–	RPMTPTQIGPSL
–	50 to 75%	EEGNLLRSW
–	50 to 75%	SEGDNVESW
20 to 50%	–	KAFKWFSAL
–	10 to 20%	SDAQRPSSF
50 to 75%	–	FPAPILRAV
50 to 75%	–	SESPWLHAPSL
20 to 50%	–	KAKKPAGAA
50 to 75%	–	YPIALTRAEM
–	50 to 75%	NEIEHIPVW
20 to 50%	–	YPYQERVFL
–	20 to 50%	AESEDLAVHLY
20 to 50%	–	KPKAAKPKA
–	50 to 75%	SEDHSGSYW
–	50 to 75%	KEFFFVKVF
–	20 to 50%	AQNLSIIQY
